# B1: CSF1R (protein)
# chain: YKYKQKPKYQVRWKIIESYEGNSYTFIDPTQLPYNEKWEFPRNNLQFGKTLGAGAFGKVVEATAFGLGKEDAVLKVAVKMLKSTAHADEKEALMSELKIMSHLGQHENIVNLLGACTHGGPVLVITEYCCYGDLLNFLRRKAEAMLGPSLSPGQDPEGGVDYKNIHLEKKYVRRDSGFSSQGVDTYVEMRPVSTSSNDSFSEQDLDKEDGRPLELRDLLHFSSQVAQGMAFLASKNCIHRDVAARNVLLTNGHVAKIGDFGLARDIMNDSNYIVKGNARLPVKWMAPESIFDCVYTVQSDVWSYGILLWEIFSLGLNPYPGILVNSKFYKLVKDGYQMAQPAFAPKNIYSIMQACWALEPTHRPTFQQICSFLQEQAQEDRRERDYTNLPSSSRSGGSGSSSSELEEESSSEHLTCCEQGDIAQPLLQPNNYQFC
# modifications: left off: small tags and cut ends
# B2: AKT3 (protein)
# chain: MSDVTIVKEGWVQKRGEYIKNWRPRYFLLKTDGSFIGYKEKPQDVDLPYPLNNFSVAKCQLMKTERPKPNTFIIRCLQWTTVIERTFHVDTPEEREEWTEAIQAVADRLQRQEEERMNCSPTSQIDNIGEEEMDASTTHHKRKTMNDFDYLKLLGKGTFGKVILVREKASGKYYAMKILKKEVIIAKDEVAHTLTESRVLKNTRHPFLTSLKYSFQTKDRLCFVMEYVNGGELFFHLSRERVFSEDRTRFYGAEIVSALDYLHSGKIVYRDLKLENLMLDKDGHIKITDFGLCKEGITDAATMKTFCGTPEYLAPEVLEDNDYGRAVDWWGLGVVMYEMMCGRLPFYNQDHEKLFELILMEDIKFPRTLSSDAKSLLSGLLIKDPNKRLGGGPDDAKEIMRHSFFSGVNWQDVYDKKLVPPFKPQVTSETDTRYFDEEFTAQTITITPPEKYDEDGMDCMDNERRPHFPQFSYSASGRE
# modifications: left off: small tags and cut ends
# Tested on: kinases of Table 6 on Myelin Basic Protein (MBP)
# Assay: Kinase assay using MBP substrate, ProQ Diamond stain (Table 6)
# Assay type: biochemical
# Conditions: kinase printed on MBP-coated slide; 20 uM ATP, 30° C.; ProQ Diamond Microarray Stain; graded Strong/Weak/Negative
# In short: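 Reactions ran at 30° C. with 20 uM ATP, 4 mM MgCl2 and 5% DMSO in HEPES pH 7.5, inhibitor added or omitted. Kinases had been arrayed onto slide-bound dephosphorylated bovine MBP; phospho-signal read after ProQ Diamond staining.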
molecule,measurement,value
B1,MBP Kinase Activity,Strong
B2,MBP Kinase Activity,Strong

# Source: US20090099029A1, “Methods and substrates for conducting assays” (Invitrogen Corporation, priority 2005, published 2009)
